# From patent US20230094463
# Biological target: Human Galectin-3 protein (Acro Biosystems, GA3-H5129)
# Assay: blocking ELISA (Gal3 coated; antibody 3 µg/mL + INSR)
protein,measurement,value
15G7.2A7 (protein) chain 1: EVQLQQSGPELVKPGASVKISCKASGYTFTDYYMNWVKQSHGKSLEWIGDINPNNGGTNYNQKFKGKATLTVDKSSSTAYMELRSLTSEDSAVYYCTSGYGFPYWGQGTLVTVSA chain 2: DIQMNQSPSSLSASLGDTISITCRASQNINIWLSWYQQKPGNIPQLLIYKASNLHTGVPSRFSGSGSGTDFTLTISSLQPEDIATYYCLQGQSYPLTFGAGTKLVMK,reduction of Gal3-INSR assembly (%),reduced assembly of Gal3 and INSR by greater than 99% at 3 µg/mL
